In EP0251446B1, “Non-human Carbonyl hydrolase mutants, DNA sequences and vectors encoding same and hosts transformed with said vectors” (GENENCOR INTERNATIONAL, INC., priority 1986, dated 1988):
*1 amine or outer side, *2 acyl side, *3 side chain or, on linkers, in order; H or OH if unused. Where a SMILES comes first, the peptide text is derived from it. The star is where a group is joined. pNA = O=[N+]([O-])c1ccc(N*)cc1; Suc = O=C(CCC(=O)[*:2])[*:1]

Tests used:
[1] = biological target: T1, B. amyloliquefaciens subtilisin, wild type (WT, Gly166) (Bacillus amyloliquefaciens, UniProt P00782); experiment: Kinetics of hydrolysis of succinyl-Ala-Ala-Pro-X-p-nitroanilide substrates (progress curve analysis); type: biochemical
T1 construct: at various amino acid residues within the mature form of the subtilisin molecule; made in house; host or cells: Bacillus subtilis (secreted, culture supernatant)
T1 sequence (P00782 108-382): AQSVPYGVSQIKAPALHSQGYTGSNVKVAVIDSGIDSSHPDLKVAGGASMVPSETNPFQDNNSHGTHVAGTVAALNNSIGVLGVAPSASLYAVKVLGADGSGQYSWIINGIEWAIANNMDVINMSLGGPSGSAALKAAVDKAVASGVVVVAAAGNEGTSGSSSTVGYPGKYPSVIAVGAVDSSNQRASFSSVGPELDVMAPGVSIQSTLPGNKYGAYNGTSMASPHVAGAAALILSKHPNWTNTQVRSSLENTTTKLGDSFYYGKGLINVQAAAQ
Source text: A change in substrate specificity is defined as a difference between the kcat/Km ratio of the precursor carbonyl hydrolase and that of the hydrolase mutant. The kcat/Km ratio is a measure of catalytic efficienty. Carbonyl hydrolase mutants with increased or diminished kcat/Km ratios are described in the examples. Generally, the objective will be to secure a mutant having a greater (numerically large) kcat/Km ratio for a given substrate, thereby enabling the use of the enzyme to more efficiently act on a target substrate. A substantial change in kcat/Km ratio is preferably at least 2-fold increase or decrease. However, smaller increases or decreases in the ratio (e.g., at least 1.5-fold) are also considered substantial. An increase in kcat/Km ratio for one substrate may be accompanied by a reduction in kcat/Km ratio for another substrate. […] Km and kcat are measured in accord with known procedures, as described in EPO Publication No. 0130756 or as described herein.
(§1) Wild-type subtilisin was purified from B. subtilis culture supernatants expressing the B. amyloliquefaciens subtilisin gene (Wells, J.A., et al. (1983) Nucleic Acids Res. 11, 7911-7925) as previously described (Estell, D.A., et al. (1985) J. Biol. Chem. 260, 6518-6521). Details of the synthesis of tetrapeptide substrates having the form succinyl-L-AlaL-AlaL-ProL-[X]-p-nitroanilide (where X is the P1 amino acid) are described by DelMar, E.G., et al. (1979) Anal. Biochem. 99, 316-320. Kinetic parameters, Km(M) and kcat-(s-^1) were measured using a modified progress curve analysis (Estell, D.A., et al. (1985) J. Biol. Chem. 260, 6518-6521). Briefly, plots of rate versus product concentration were fit to the differential form of the rate equation using a non-linear regression algorithm. Errors in kcat and Km for all values reported are less than five percent. The various substrates in Table VIII are ranged in order of decreasing hydrophobicity. Nozaki, Y. (1971), J. Biol. Chem. 246, 2211-2217; Tanford C. (1978) Science 200, 1012).

[2] = biological target: T2, B. amyloliquefaciens subtilisin deletion mutant S153/S156/A158/G159/S160/Δ161-164/I165/S166/A169/R170 (Bacillus amyloliquefaciens, UniProt P00782, A260S/DEL268-271/E263S/G267S/G273S/G276A/K277R/S266G/T265A/V272I); experiment: Kinetics of p-nitroanilide substrate hydrolysis, deletion mutant; type: biochemical; conditions: Table V; substrate not given; method b166 gives kcat in s-1
T2 construct: made in house
T2 sequence (P00782 with tags, fused parts or gaps A260S/E263S/DEL265-265/S266A/S269I/DEL271-273/G276A/K277R): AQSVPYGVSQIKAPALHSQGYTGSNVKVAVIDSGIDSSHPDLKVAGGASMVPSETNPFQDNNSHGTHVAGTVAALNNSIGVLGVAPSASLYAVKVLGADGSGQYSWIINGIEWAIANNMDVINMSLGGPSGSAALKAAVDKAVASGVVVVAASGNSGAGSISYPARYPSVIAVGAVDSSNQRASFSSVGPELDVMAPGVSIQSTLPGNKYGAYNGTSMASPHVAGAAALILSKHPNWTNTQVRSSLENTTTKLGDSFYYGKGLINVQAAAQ
Source text: The effect of deletion of residues 161 through 164 has been shown by comparing the activity of the wild type (WT) enzyme with a mutant enzyme containing this deletion as well as multiple substitutions (i.e., S153/S156/A158/G159/S160/0161-164/1165/S166/A169/R170). This produced the following results:
as §1

[3] = biological target: T3, B. amyloliquefaciens subtilisin variant L217 (Tyr217 to Leu) (Bacillus amyloliquefaciens, UniProt P00782, Y324L); experiment: Kinetics of p-nitroanilide substrate hydrolysis, L217; type: biochemical; conditions: substrate sAAPFpNa
T3 construct: made in house
T3 sequence (P00782 108-382 Y324L): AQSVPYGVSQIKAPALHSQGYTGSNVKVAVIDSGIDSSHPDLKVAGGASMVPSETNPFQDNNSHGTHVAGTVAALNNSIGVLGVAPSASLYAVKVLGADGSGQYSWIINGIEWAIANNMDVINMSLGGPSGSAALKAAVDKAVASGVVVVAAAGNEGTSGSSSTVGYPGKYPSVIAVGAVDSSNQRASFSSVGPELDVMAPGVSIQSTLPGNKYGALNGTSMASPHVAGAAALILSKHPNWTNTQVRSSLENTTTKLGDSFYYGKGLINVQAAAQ
Source text: as §1
Tyr217 has been substituted by all other 19 amino acids. Cassette mutagenesis as described in EPO publication No. 0130756 was used according to the protocol of Figure 22. The EcoRV restriction site was used for restriction-purification of pA217.
Since this position is involved in substrate binding, mutations here effect kinetic parameters of the enzyme. […]

[4] = substrate: CSCC[C@H](NC(=O)[C@@H]1CCCN1C(=O)[C@H](C)NC(=O)[C@H](C)NC(=O)CCC(=O)O)C(=O)Nc1ccc([N+](=O)[O-])cc1; experiment: Kinetics of p-nitroanilide substrate hydrolysis, E166; type: biochemical, B. amyloliquefaciens; conditions: other: Table XIV, 156 Glu / 166 Glu; value in parentheses; synthetic substrate with label as P-1 amino acid
Source text: as §1
(§2) The construction of subtilisin mutants containing the substitution of the ionic amino acids Asp, Asn, Gln, Lys and Ang are disclosed in EPO Publication No. 0130756. The present example describes the construction of the mutant subtilisin containing Glu at position 166 (E166) and presents substrate specificity data on these mutants. Further data on position 166 and 156 single and double mutants is presented infra.
(§3) pΔ166, described in Example 3, was digested with Sacl and Xmal. The double strand DNA cassette (underlined and overlined) of line 4 in Figure 13 contained the triplet GAA for the codon 166 to encode the replacement of Glu for Gly166. This mutant plasmid designated […] was propagated in BG2036 as described. This mutant subtilisin, together with the other mutants containing ionic substituent amino acids at residue 166, were isolated as described and further analyzed for variations in substrate specificity.
(§4) Each of these mutants was analyzed with the tetrapeptide substrates, succinyl-L-AlaL-AlaProL-X-p-nitroanilide, where X was Phe, Ala and Glu.

[5] = substrate: C[C@H](NC(=O)CCC(=O)O)C(=O)N[C@@H](C)C(=O)N1CCC[C@H]1C(=O)N[C@@H](CCC(N)=O)C(=O)Nc1ccc([N+](=O)[O-])cc1; experiment: as above; type: biochemical, B. amyloliquefaciens; conditions: other: Table XIV, 156 Glu / 166 Glu; value in parentheses; synthetic substrate with label as P-1 amino acid
Source text: as §1, §2, §3, §4

[6] = substrate: C[C@H](NC(=O)CCC(=O)O)C(=O)N[C@@H](C)C(=O)N1CCC[C@H]1C(=O)N[C@@H](CCCCN)C(=O)Nc1ccc([N+](=O)[O-])cc1; experiment: as above; type: biochemical, B. amyloliquefaciens; conditions: other: Table XIV, 156 Glu / 166 Glu; value in parentheses; synthetic substrate with label as P-1 amino acid
Source text: as §1, §2, §3, §4

[7] = substrate: CSCC[C@H](NC(=O)[C@@H]1CCCN1C(=O)[C@H](C)NC(=O)[C@H](C)NC(=O)CCC(=O)O)C(=O)Nc1ccc([N+](=O)[O-])cc1; experiment: Kinetics of p-nitroanilide substrate hydrolysis, Q166; type: biochemical, B. amyloliquefaciens; conditions: other: Table XIV, 156 Glu / 166 Gln; value in parentheses; synthetic substrate with label as P-1 amino acid
Source text: as §1, §2, §4

[8] = substrate: C[C@H](NC(=O)CCC(=O)O)C(=O)N[C@@H](C)C(=O)N1CCC[C@H]1C(=O)N[C@@H](CCC(=O)O)C(=O)Nc1ccc([N+](=O)[O-])cc1; experiment: as above; type: biochemical, B. amyloliquefaciens; conditions: other: Table XIV, 156 Glu / 166 Gln; value in parentheses; synthetic substrate with label as P-1 amino acid
Source text: as §1, §2, §4

[9] = substrate: C[C@H](NC(=O)CCC(=O)O)C(=O)N[C@@H](C)C(=O)N1CCC[C@H]1C(=O)N[C@@H](CCC(N)=O)C(=O)Nc1ccc([N+](=O)[O-])cc1; experiment: as above; type: biochemical, B. amyloliquefaciens; conditions: other: Table XIV, 156 Glu / 166 Gln; value in parentheses; synthetic substrate with label as P-1 amino acid
Source text: as §1, §2, §4

[10] = substrate: C[C@H](NC(=O)CCC(=O)O)C(=O)N[C@@H](C)C(=O)N1CCC[C@H]1C(=O)N[C@@H](CCCCN)C(=O)Nc1ccc([N+](=O)[O-])cc1; experiment: as above; type: biochemical, B. amyloliquefaciens; conditions: other: Table XIV, 156 Glu / 166 Gln; value in parentheses; synthetic substrate with label as P-1 amino acid
Source text: as §1, §2, §4

[11] = substrate: CSCC[C@H](NC(=O)[C@@H]1CCCN1C(=O)[C@H](C)NC(=O)[C@H](C)NC(=O)CCC(=O)O)C(=O)Nc1ccc([N+](=O)[O-])cc1; experiment: Kinetics of p-nitroanilide substrate hydrolysis, N166; type: biochemical, B. amyloliquefaciens; conditions: other: Table XIV, 156 Glu / 166 Asn; value in parentheses; synthetic substrate with label as P-1 amino acid
Source text: as §1, §2, §4

[12] = substrate: C[C@H](NC(=O)CCC(=O)O)C(=O)N[C@@H](C)C(=O)N1CCC[C@H]1C(=O)N[C@@H](CCC(=O)O)C(=O)Nc1ccc([N+](=O)[O-])cc1; experiment: as above; type: biochemical, B. amyloliquefaciens; conditions: other: Table XIV, 156 Glu / 166 Asn; value in parentheses; synthetic substrate with label as P-1 amino acid
Source text: as §1, §2, §4

[13] = substrate: C[C@H](NC(=O)CCC(=O)O)C(=O)N[C@@H](C)C(=O)N1CCC[C@H]1C(=O)N[C@@H](CCC(N)=O)C(=O)Nc1ccc([N+](=O)[O-])cc1; experiment: as above; type: biochemical, B. amyloliquefaciens; conditions: other: Table XIV, 156 Glu / 166 Asn; value in parentheses; synthetic substrate with label as P-1 amino acid
Source text: as §1, §2, §4

[14] = substrate: C[C@H](NC(=O)CCC(=O)O)C(=O)N[C@@H](C)C(=O)N1CCC[C@H]1C(=O)N[C@@H](CCCCN)C(=O)Nc1ccc([N+](=O)[O-])cc1; experiment: as above; type: biochemical, B. amyloliquefaciens; conditions: other: Table XIV, 156 Glu / 166 Asn; value in parentheses; synthetic substrate with label as P-1 amino acid
Source text: as §1, §2, §4

C[C@H](NC(=O)CCC(=O)O)C(=O)N[C@@H](C)C(=O)N1CCC[C@H]1C(=O)N[C@@H](Cc1ccccc1)C(=O)Nc1ccc([N+](=O)[O-])cc1 [sAAPFpNa, succinyl-L-AlaL-AlaL-ProL-Phep-nitroanilide, reference compound] (Suc-AAPF-pNA)
kcat ([1]; Table V, substrate not given, method b166 gives kcat in s-1): 50 | kcat ([1]; Table XIX, WT): 50 s-^1 | kcat [2]: 8 | kcat [3]: 277 5'

B1: B. amyloliquefaciens subtilisin variant E166 (Gly166 to Glu) (Bacillus amyloliquefaciens; G273E) (protein)
chain: AQSVPYGVSQIKAPALHSQGYTGSNVKVAVIDSGIDSSHPDLKVAGGASMVPSETNPFQDNNSHGTHVAGTVAALNNSIGVLGVAPSASLYAVKVLGADGSGQYSWIINGIEWAIANNMDVINMSLGGPSGSAALKAAVDKAVASGVVVVAAAGNEGTSGSSSTVEYPGKYPSVIAVGAVDSSNQRASFSSVGPELDVMAPGVSIQSTLPGNKYGAYNGTSMASPHVAGAAALILSKHPNWTNTQVRSSLENTTTKLGDSFYYGKGLINVQAAAQ
notes: at various amino acid residues within the mature form of the subtilisin molecule; made in house; host or cells: Bacillus subtilis BG2036
Km [4]: 525 µM | Km [5]: 1230 µM | Km [6]: 204 µM

B2: B. amyloliquefaciens subtilisin variant Q166 (Gly166 to Gln) (Bacillus amyloliquefaciens; G273Q) (protein)
chain: AQSVPYGVSQIKAPALHSQGYTGSNVKVAVIDSGIDSSHPDLKVAGGASMVPSETNPFQDNNSHGTHVAGTVAALNNSIGVLGVAPSASLYAVKVLGADGSGQYSWIINGIEWAIANNMDVINMSLGGPSGSAALKAAVDKAVASGVVVVAAAGNEGTSGSSSTVQYPGKYPSVIAVGAVDSSNQRASFSSVGPELDVMAPGVSIQSTLPGNKYGAYNGTSMASPHVAGAAALILSKHPNWTNTQVRSSLENTTTKLGDSFYYGKGLINVQAAAQ
notes: as for B1
Km [7]: 43.7 µM | Km [8]: 7590 µM | Km [9]: 229 µM | Km [10]: 708 µM

B3: B. amyloliquefaciens subtilisin variant N166 (Gly166 to Asn) (Bacillus amyloliquefaciens; G273N) (protein)
chain: AQSVPYGVSQIKAPALHSQGYTGSNVKVAVIDSGIDSSHPDLKVAGGASMVPSETNPFQDNNSHGTHVAGTVAALNNSIGVLGVAPSASLYAVKVLGADGSGQYSWIINGIEWAIANNMDVINMSLGGPSGSAALKAAVDKAVASGVVVVAAAGNEGTSGSSSTVNYPGKYPSVIAVGAVDSSNQRASFSSVGPELDVMAPGVSIQSTLPGNKYGAYNGTSMASPHVAGAAALILSKHPNWTNTQVRSSLENTTTKLGDSFYYGKGLINVQAAAQ
notes: as for B1
Km [11]: 141 µM | Km [12]: 6030 µM | Km [13]: 724 µM | Km [14]: 1320 µM
